According to paper PMC9701221 (Nature Communications, 2022):

B1: bacteriophage SPP1 head completion protein gp16 (stopper protein) (natural protein, UniProt O48446 1-109, looked up)
chain: MYEEFPDVITFQSYVEQSNGEGGKTYKWVDEFTAAAHVQPISQEEYYKAQQLQTPIGYNIYTPYDDRIDKKMRVIYRGKIVTFIGDPVDLSGLQEITRIKGKEDGAYVG
notes: Head completion (stopper) protein gp16 of bacteriophage SPP1; native protein from the virion connector; Hexamer in the connector; monomer in solution before assembly (PDB 2KCA, cited); source: CsCl gradient, EDTA disruption, glycerol gradient
B2: bacteriophage SPP1 portal protein gp6 (natural protein, UniProt P54309 1-503, looked up)
chain: MADIYPLGKTHTEELNEIIVESAKEIAEPDTTMIQKLIDEHNPEPLLKGVRYYMCENDIEKKRRTYYDAAGQQLVDDTKTNNRTSHAWHKLFVDQKTQYLVGEPVTFTSDNKTLLEYVNELADDDFDDILNETVKNMSNKGIEYWHPFVDEEGEFDYVIFPAEEMIVVYKDNTRRDILFALRYYSYKGIMGEETQKAELYTDTHVYYYEKIDGVYQMDYSYGENNPRPHMTKGGQAIGWGRVPIIPFKNNEEMVSDLKFYKDLIDNYDSITSSTMDSFSDFQQIVYVLKNYDGENPKEFTANLRYHSVIKVSGDGGVDTLRAEIPVDSAAKELERIQDELYKSAQAVDNSPETIGGGATGPALENLYALLDLKANMAERKIRAGLRLFFWFFAEYLRNTGKGDFNPDKELTMTFTRTRIQNDSEIVQSLVQGVTGGIMSKETAVARNPFVQDPEEELARIEEEMNQYAEMQGNLLDDEGGDDDLEEDDPNAGAAESGGAGQVS
notes: Portal protein gp6 of bacteriophage SPP1, 503 residues; native protein from the virion connector; traced in the cryoEM map from residue 28 to 470; Dodecamer in the connector gp6(12)gp15(12)gp16(6); the assembly-naive recombinant form (PDB 2JES) is a 13-mer; also called connector gp6; gp6 12-mer; source: CsCl gradient, EDTA disruption, glycerol gradient; copies: 12
B3: bacteriophage SPP1 head completion protein gp15 (adaptor protein) (natural protein, UniProt Q38584 1-102, looked up)
chain: MDIQRVKRLLSITNDKHDEYLTEMVPLLVEFAKDECHNPFIDKDGNESIPSGVLIFVAKAAQFYMTNAGLTGRSMDTVSYNFATEIPSTILKKLNPYRKMAR
notes: Head completion (adaptor) protein gp15 of bacteriophage SPP1; native protein from the virion connector; C-terminal residues ArgLysMetAlaArg, last residue named Arg102; Dodecamer in the connector; monomer in solution before assembly (PDB 2KBZ, cited); source: CsCl gradient, EDTA disruption, glycerol gradient; copies: 12

Legend:
Assay in all cases: cryo-EM structure; single particle cryoEM of the native gp6gp15gp16 connector extracted from tailless DNA-filled capsids, 0.64 mg/mL in 0.5x TBT (Tris-Cl pH 7.5, NaCl, MgCl2); C6 symmetry in the final refinement; 2.7 Å (FSC 0.5)
[1] = biological target: the molecule itself
[2] = biological target: B1; details: both partners purified
[3] = biological target: B2; details: both partners purified

B1
stoichiometry N [1]: 6

B2
stoichiometry N [1]: 12

B3
binding result [2]: binds | stoichiometry N [1]: 12 | binding result [3]: binds
